{
  "source": "paper PMC9186069",
  "key": {"[1]": {"molecular_target": "FbpA-C (Borrelia miyamotoi strain FR64b) (UniProt W5SFZ1)", "experiment": "SPR; FbpA-C, FbpB-C or FbpA DA-C immobilised by amine coupling; C1r-CCP2-SP injected, twofold dilution series 0-100 nM, multi-cycle; Biacore T200, 25°C, 30 μL/min; kinetic fits"}, "[2]": {"molecular_target": "MBP-FbpA-N (Borrelia miyamotoi strain FR64b)", "experiment": "SPR; MBP-Fbp-N fusion proteins immobilised by amine coupling on CMD200 chips; human plasma fibronectin injected, twofold dilution series up to 500 nM, multi-cycle; Biacore T200, 25°C, 30 μL/min, HBS-T; steady-state affinity fits"}, "[3]": {"molecular_target": "serum C1r (human (endogenous in normal human serum))"}},
  "data": [
    {"substance": "C1r-CCP2-SP (domain or fragment)", "values": [
      {"measurement": "Kd", "setting": "[1]", "result": 0.9, "unit": "nM"},
      {"measurement": "koff", "setting": "[1]", "result": 0.00031, "unit": "s⁻¹"},
      {"measurement": "kon", "setting": "[1]", "result": 330000, "unit": "M⁻¹ s⁻¹"}
    ]},
    {"substance": "human fibronectin (from UniProt P02751) (natural protein)", "values": [
      {"measurement": "Kd", "setting": "[2]", "result": 170, "unit": "nM"}
    ]},
    {"substance": "FbpB-C (from UniProt A0A0U2RP97 264-432) (domain or fragment)", "values": [
      {"measurement": "IC50 of inhibition of classical pathway complement activation (ELISA-based assay, C4b deposition, normal human serum)", "setting": "[3]", "result": 1900, "unit": "nM"}
    ]},
    {"substance": "FbpA-C (from UniProt W5SFZ1 222-371) (domain or fragment)", "values": [
      {"measurement": "IC50 of inhibition of classical pathway complement activation (ELISA-based assay, C4b deposition, normal human serum)", "setting": "[3]", "result": 23, "unit": "nM"},
      {"measurement": "IC50 of inhibition of classical pathway hemolysis (pre-sensitized sheep erythrocytes, 2% normal human serum)", "setting": "[3]", "result": 220, "unit": "nM"}
    ]}
  ]
}
